Data published in patent publication US12016898B2, “Compositions and uses of antimicrobial materials with tissue-compatible properties” (Amicrobe, Inc., priority 2012, dated 2024).

Experiments:
[1] = texture analysis profile (firmness, work of adhesion); assay type: physicochemical; settings: 1% (w/w) polypeptide and 1% (w/w) HEC in water
Source text: FIGS. 20A and 20B show A) firmness values for mixtures of 1% solutions of synthetic cationic polypeptides with 1% hydroxyethyl cellulose (HEC, Natrosol HHX) in water (FIG. 20A); and B) work of adhesion values for mixtures of 1% solutions of copolypeptides with 1% hydroxyethyl cellulose (HEC, Natrosol HHX) in water (FIG. 20B).
Values for 1% (w/w) polypeptide in water. b. Values for 1% polypeptide/1% HEC (w/w) in water. c. Interaction parameter: ΔF=Fmix(poly/HEC)−(Fpoly+FHEC). Where Fmix(poly/HEC)=firmness of 1% polypeptide/1% HEC, Fpoly=firmness of 1% polypeptide solution, and FHEC=firmness of 1% HEC (Natrosol HHX) in water. Similar treatment of data was performed for the work of adhesion interaction parameter.
A texture analysis profile has been used to determine the effects of block copolypeptide composition and hydrophobic enantiopurity on the mechanical properties of the block copolypeptide/HEC mixtures (FIGS. 20A and 20B). […] This corresponds to an interaction parameter value of 14.45 mN and an overall increase of over 170% over what would be expected from the additive contributions of the individual components. […] Hydrophobic block length was also shown to be influential.

P. aeruginosa biofilms = experiment: in vitro P. aeruginosa biofilm assay; assay type: cell-based; settings: 0.1-20 mg/mL, 24 hour contact time
[2] = system: S. epidermidis, P. aeruginosa (pig clinical isolate); experiment: open-wound porcine treatment model; assay type: in vivo; settings: wounds contaminated, treated after 2 hrs, biopsied 4 hrs after treatment
Procedure: Each wound was contaminated with bacteria (S. epidermidis, P. aeruginosa (pig clinical isolate)). After 2 hrs, wounds were rinsed with saline and treated with 5 mL of test article or water. Test articles: K100(rac-L)20 (SEQ ID NO: 12) at 10, 2, 0.4 mg/mL, 10 mg/mL K100(rac-L)20 (SEQ ID NO: 12) and 30 mg/mL PEG 400 in water, and deionized water as a control. Gauze soaked in test article or water was placed on top of the wounds. Wounds were biopsied at 4 hrs after treatment.
Aqueous compositions that include mixtures of synthetic cationic polypeptides with two different polymers (polyethylene glycol 400 and hydroxyethyl cellulose) were both found to be effective in vivo. As depicted in FIG. 25, K100(rac-L)20 (SEQ ID NO: 12) was effective in an porcine open-wound treatment model alone and in combination with PEG 400. […] The aqueous compositions described herein can be used for any one or more treatments and/or applications, including but not limited to prevention of infections, treatment of infections, treatment for topical anti-infection, treatment for microbial decolonization, wound treatment, surgical site treatment, trauma treatment, burn treatment, treatment of diabetic foot ulcers, eye treatment, treatment of vaginal infections, treatment of urinary tract infections, hand sanitization, for coating prosthetic devices and/or implants, food preservation and solution preservation.

Molecule	effect on adhesiveness / work of adhesion of mixing polypeptide with HEC [1]	effect on firmness of mixing polypeptide with HEC [1]	effectiveness against P. aeruginosa biofilms in vitro (P. aeruginosa biofilms)	effectiveness in porcine open-wound treatment model [2]
K100: lysine homopolypeptide (K100, lysine homopolypeptide) KKKKKKKKKKKKKKKKKKKKKKKKKKKKKKKKKKKKKKKKKKKKKKKKKKKKKKKKKKKKKKKKKKKKKKKKKKKKKKKKKKKKKKKKKKKKKKKKKKKK	failed to enhance	failed to enhance		
K100(rac-L)20: synthetic cationic copolypeptide: lysine segment and shorter racemic hydrophobic leucine block (racemic leucine block; K100(rac-L)20; rac-L (101)..(120)) KKKKKKKKKKKKKKKKKKKKKKKKKKKKKKKKKKKKKKKKKKKKKKKKKKKKKKKKKKKKKKKKKKKKKKKKKKKKKKKKKKKKKKKKKKKKKKKKKKKKLLLLLLLLLLLLLLLLLLLL	no effect	no effect	effective	effective
K100L20: synthetic cationic copolypeptide: lysine segment and leucine segment (K100L20) KKKKKKKKKKKKKKKKKKKKKKKKKKKKKKKKKKKKKKKKKKKKKKKKKKKKKKKKKKKKKKKKKKKKKKKKKKKKKKKKKKKKKKKKKKKKKKKKKKKKLLLLLLLLLLLLLLLLLLLL	antagonistic	increased firmness		
